Experimental data: patent publication US20250376528A1

Biological target: human IL-10 receptor (hIL-10R α and β chains) on HEK-Blue IL-10 reporter cells (human) (UniProt Q13651)
Test: cell-based or functional assay

Sequence of human IL-10 receptor (hIL-10R α and β chains) on HEK-Blue IL-10 reporter cells (human) (Q13651 22-578, chain 1 of 2): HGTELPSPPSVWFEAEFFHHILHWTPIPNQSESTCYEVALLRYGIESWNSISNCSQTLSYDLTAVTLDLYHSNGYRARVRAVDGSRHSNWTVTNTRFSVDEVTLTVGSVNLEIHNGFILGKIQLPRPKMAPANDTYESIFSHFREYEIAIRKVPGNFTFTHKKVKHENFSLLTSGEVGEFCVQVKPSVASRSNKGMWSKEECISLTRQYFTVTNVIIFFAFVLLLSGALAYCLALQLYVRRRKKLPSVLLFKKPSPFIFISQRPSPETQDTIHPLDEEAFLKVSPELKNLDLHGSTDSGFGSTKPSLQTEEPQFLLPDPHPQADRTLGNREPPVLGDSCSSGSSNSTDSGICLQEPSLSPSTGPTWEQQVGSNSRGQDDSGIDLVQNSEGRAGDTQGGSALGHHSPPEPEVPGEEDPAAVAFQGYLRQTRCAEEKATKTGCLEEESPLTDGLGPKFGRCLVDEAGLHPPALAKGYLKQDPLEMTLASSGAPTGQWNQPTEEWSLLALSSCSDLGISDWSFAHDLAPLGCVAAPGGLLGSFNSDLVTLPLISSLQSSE
Sequence of human IL-10 receptor (hIL-10R α and β chains) on HEK-Blue IL-10 reporter cells (human) (Q08334 20-325, chain 2 of 2, further chain): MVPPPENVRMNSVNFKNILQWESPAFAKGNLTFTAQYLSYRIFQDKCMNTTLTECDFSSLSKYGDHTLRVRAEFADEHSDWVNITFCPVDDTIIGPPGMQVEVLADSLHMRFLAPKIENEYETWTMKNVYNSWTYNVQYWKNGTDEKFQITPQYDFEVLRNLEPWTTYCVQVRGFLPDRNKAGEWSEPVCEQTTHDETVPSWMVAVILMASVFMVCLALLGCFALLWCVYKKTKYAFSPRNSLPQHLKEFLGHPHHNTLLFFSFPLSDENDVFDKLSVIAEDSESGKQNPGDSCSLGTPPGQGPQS

Abs 630 (25 nM): 2.08 Abs 630 | Abs 630 (100 nM): 2.04 Abs 630
Substance: Recombinant Animal-Free Human IL-10 (Shenandoah Biotechnology, Catalog No. 100-83AF) (from UniProt P22301 19-178) (ligand)
